Experimental data as given in US20090053203A1 (ONTHERIX, published 2009).
Ends that are not written are not given here.

What was measured:
Test in all cases: chemical cross-linking of the biotinylated peptide on chilled cells, capture on Ni-NTA plates, detection with an antibody to the marker
[1] = target: T1, PCNA (UniProt P12004 1-261, limits assumed)
T1 construct: whole, on cells
Method: (§1) HEK293 kidney cell line and 54 tumor cell lines obtained from the National Cancer Institute and passaged in RPMI1640 cell culture medium supplemented with 10% fetal bovine serum and 10 uM FeCl₂. Uptake of streptavidin-horseradish peroxidase (SA-HRP) conjugate and of various SA-HRP::MBD peptide complexes was determined as described (Singh et al. J Biol Chem. 279 (1):477-87 [2004]) using biotinylated MBD9 ([…]) (SEQ ID NO: 10) and MBD21 ([…]) (SEQ ID NO: 4) peptides and SA-HRP. Nuclear and cytoplasmic localization of these proteins was also determined in each case. […] In order to establish the underlying molecular mechanism for this variability, we cross-linked MBD21 peptide to the following cell surface markers at 4 degrees Celsius as previously described (Singh et al. J Biol Chem. 279 (1):477-87 [2004]): transferrin receptor 1, caveolin 1, PCNA, integrins alpha v, 2, 5 and 6, integrins beta 1, 3 and 5. […] Based on the strength of these correlations, it was possible to derive crude predictive formulae for MBD-mediated uptake based on the rate of cross-linking to surface markers. Such predictive formulas could form the basis for a diagnostic procedure to select appropriate targets for MBD-based therapies.

[2] = target: T2, caveolin 1 (UniProt Q03135 2-178, limits assumed)
T2 construct: whole, on cells
T2 sequence (looked up): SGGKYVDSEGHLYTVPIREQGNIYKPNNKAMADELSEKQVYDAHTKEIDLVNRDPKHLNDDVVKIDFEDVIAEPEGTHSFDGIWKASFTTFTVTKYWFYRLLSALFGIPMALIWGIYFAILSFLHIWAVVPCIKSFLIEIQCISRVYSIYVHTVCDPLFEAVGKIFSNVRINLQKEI
Method: as §1

[3] = target: T3, transferrin receptor 1 (UniProt P02786 1-760, limits assumed)
T3 construct: whole, on cells
Method: as §1

T1 sequence (P12004 whole entry): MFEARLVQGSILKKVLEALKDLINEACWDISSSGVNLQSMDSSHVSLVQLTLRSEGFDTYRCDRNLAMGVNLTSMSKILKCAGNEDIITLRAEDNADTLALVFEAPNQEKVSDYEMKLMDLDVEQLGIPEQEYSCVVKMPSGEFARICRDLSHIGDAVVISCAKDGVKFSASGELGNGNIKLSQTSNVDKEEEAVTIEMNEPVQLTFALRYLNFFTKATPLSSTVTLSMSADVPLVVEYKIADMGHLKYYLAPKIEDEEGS
T3 sequence (P02786 whole entry): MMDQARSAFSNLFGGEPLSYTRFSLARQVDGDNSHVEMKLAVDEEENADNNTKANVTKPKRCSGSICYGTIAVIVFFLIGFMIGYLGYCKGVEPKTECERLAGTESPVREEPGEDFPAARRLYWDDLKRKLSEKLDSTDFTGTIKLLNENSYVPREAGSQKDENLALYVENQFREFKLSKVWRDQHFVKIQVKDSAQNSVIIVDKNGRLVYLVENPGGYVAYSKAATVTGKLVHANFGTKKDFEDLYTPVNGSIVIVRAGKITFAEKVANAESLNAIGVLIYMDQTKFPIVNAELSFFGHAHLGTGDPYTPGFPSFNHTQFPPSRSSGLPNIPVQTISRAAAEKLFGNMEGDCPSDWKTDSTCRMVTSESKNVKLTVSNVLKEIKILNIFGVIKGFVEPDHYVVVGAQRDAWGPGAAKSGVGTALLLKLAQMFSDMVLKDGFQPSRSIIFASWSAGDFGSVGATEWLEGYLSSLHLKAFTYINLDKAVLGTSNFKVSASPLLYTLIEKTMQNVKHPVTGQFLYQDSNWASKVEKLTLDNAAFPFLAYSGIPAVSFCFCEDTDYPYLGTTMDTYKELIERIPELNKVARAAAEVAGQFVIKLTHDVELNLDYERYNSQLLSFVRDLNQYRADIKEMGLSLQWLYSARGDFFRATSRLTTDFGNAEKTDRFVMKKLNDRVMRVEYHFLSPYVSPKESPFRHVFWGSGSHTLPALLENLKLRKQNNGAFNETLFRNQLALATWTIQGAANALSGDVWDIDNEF

binding result [1]: binds | binding result [2]: binds | binding result [3]: binds
Binder: KKGFYKKKQCRPSKGRKRGFCWAVDKYG (cysteine pairing not given here; also: biotinylated, position not given here, also called biotinylated MBD21 peptide) [MBD21 peptide (biotinylated)]
